Laboratory results published in patent US5661126.

Biological target: recombinant human Mullerian Inhibiting Substance (human) (UniProt P03971)
Assay: absorption of DG-MIS with IgG (1:3) and Protein A Sepharose, MIS in supernatant by ELISA; MIS alone 9.0 nM

MIS level left after absorption: 8.8 nM
Substance: normal rabbit IgG (Dako Corporation, Denmark Lot 108) (polyclonal serum or antibody)
